# Experimental data published in patent publication US20240043504A1 (published 2024).
# B1: mAb10971 (antibody, V domains shown)
# VH: EVQLVESGGGLIQPGGSLRLSCAASGVTVSSNYMSWVRQAPGKGLEWVSVIYSGGSTFYSDSVKGRFSISRDNSKNTLYLQMNSLRAEDTAVYYCARDLYYYGMDVWGQGTTVTVSS
# VL: DIQLTQSPSFLSASVGDRVTITCRASQGISTYLAWYQQKPGKAPKLLIYAASTLQSGVPSRFSGSGSGTEFTLTISSLQPEDFATYYCQQLDSYPGLTFGGGTKVEIKR
# B2: mAb10930 (antibody, V domains shown)
# VH: EVQLVESGGGLVQPGRSLRLSCAASGFTFDDYAMYWVRQAPGKGLEWVSGISWNSGSIGYADSVKGRFTISRDNAKNSLYLQMNSLRAADTALYYCAKDKDWNSRGYYYYGMDVWGQGTTVTVSS
# VL: not shown
# B3: mAb10921 (antibody, V domains shown)
# VH: EVQLVESGGGLVQPGGSLRLSCAASGITVSSNYMSWVRQAPGKGLEWVSVIYSGGSTFYADSVKGRFTISRHNSKNTLYLQMNSLRAEDTAVYYCARERNFDAFDIWGQGTMVTVSS
# VL: DIQMTQSPSSVSASVGDRVTITCRASQGISSWLAWYQQKPGKAPKLLIYAASSLQSGVPSRFSGSGSGTDFTLTISSLQPEDFATYYCQQANSFPLFTFGPGTKVDIKR
# B4: mAb10957 (antibody, V domains shown)
# VH: EVQLVESGGGLVQPGGSLRLSCAASGVTVSSNYMSWVRQAPGKGLEWVSVIYSGGSTFYADSVKGRFTISRDNSKNTLFLQMNSLRIEDTAVYYCARDLGPYGMDVWGQGTTVTVSS
# VL: DIQLTQSPSFLSASVGDRVTITCRASQGISSYLAWYQQKPGKAPKLLIYAASTLQSGVPSRFSGSGSGTQFILTISSLQPEDFATYYCQQLNSYPGFTFGPGTKVDIKR
# B5: mAb10989 (antibody, V domains shown)
# VH: QVQLVQSGAEVKKPGASVKVSCKASGYIFTGYYMHWVRQAPGQGLEWMGWINPNSGGANYAQKFQGRVTLTRDTSITTVYMELSRLRFDDTAVYYCARGSRYDWNQNNWFDPWGQGTLVTVSS
# VL: QSALTQPASVSGSPGQSITISCTGTSSDVGTYNYVSWYQQHPGKAPKLMIFDVSNRPSGVSDRFSGSKSGNTASLTISGLQAEDEADYYCSSFTTSSTVVFGGGTKLTVLG
# B6: mAb10913 (antibody, V domains shown)
# VH: EVQLVESGGGLVQPGGSLRLSCAASGFTFRNYEMNWVRQAPGKGLEWVSYITSSGSTMYYADSVKGRFTISRDNAKNSLYLQMNSLRAEDTAVYYCARDGFYYYYAMDVWGQGTTVTVSS
# VL: QSVLTQPPSVSAAPGQKVTISCSGSSSNIGNNYVSWYQQLPGTAPKLLIYDNNKRPSGIPDRFSGSKSGTSATLGITGLQTGDEADYYCGTWDSSLSVGRVFGTGTKVTVLG
# B7: mAb10964 (antibody, V domains shown)
# VH: QVQLQESGPGLVKPSETLSLTCTVSGGSINNYYWIWIRQPPGKGLEWIGYIYHSGSTNYNPSLKSRVTISVDTSKNQFSLKVSSVTAADTAVYYCANMVRGVYEDDYWGQGTLVTVSS
# VL: DIQMTQSPSSLSASVGDRVTITCRASQSISNYLNWYQQKPGKAPKLLIFAASSLRSGVPSRFSGSGSGTDFTLTISSLHPEDFATYYCQQNYNTPLTFGPGTKVDIKR
# B8: mAb10982 (antibody, V domains shown)
# VH: EVQLVESGGGLVQPGGSLRLSCAASGLTVSSNYMSWVRQAPGKGLEWVSVIYSGGTTYYADSVKGRFTISRHNSKNTLSLQMNSLRAEDTAVYYCARGEGANYYGMDVWGQGTTVTVSS
# VL: QSVLTQPPSVSGAPGQRVTISCTGSSSNIGTGYDVHWYQQLPGTAPKLLIYGNSNRPSGVPDRFSGSKSGTSASLAITGLQAEDEADYYCQSYDSSLSGYVVFGGGTKLTVLG
# B9: mAb10985 (antibody, V domains shown)
# VH: EVQLVESGGGLVQPGRSLRLSCAASGFTFDDYAMHWVRQAPGKGLEWVSGISWNRGSIGYADSVKGRFTISRDNAKNSLYLQMSSLRAEDTALYYCAKDGERWDSVVVPSARNGMDVWGQGTTVTVSS
# VL: QSVLTQPPSVSGAPGQRVTISCTGSSSNIGAGYDVHWYQQLPGTAPKLLIYGNSNRPSGVPDRFSGSKSGTSASLAITGLQAEDEADYYCQSYDSSLSGSYVFGTGTKVTVLG
# B10: mAb10986 (antibody, V domains shown)
# VH: EVQLVESGGGLVQPGGSLRLSCAASEFTVSSNYMSWVRQAPGKGLEWVSVIYSGGSTFYADSVKGRFTISRDNSKNTLYLQMNSLRAEDTAVYYCARALPYGDLHFDYWGQGTLVTVSS
# VL: QSVLTQPPSVSGAPGQRVTISCTGSSSNIGTGYDVHWYQQLPGTAPKLLIYGNTNRPSGVPDRFSGSKSGTSASLAITGLQAEDEADYYCQSYDSSLSDSYVFGTGTKVTVLG
# B11: mAb10934 (antibody, V domains shown)
# VH: not shown
# VL: DIQMTQSPSSLSASVGDRVTITCQASQDIWNYINWYQQKPGKAPKLLIYDASNLKTGVPSRFSGSGSGTDFTFTISSLQPEDIATYYCQQHDDLPPTFGQGTKVEIKR
# B12: mAb10967 (antibody, V domains shown)
# VH: EVQLVESGGGLVQPGGSLRLSCAASGFTVSSNYMSWVRQAPGKGLEWVSVIYPGGSTFYADSVKGRFTISRDNSKNTLYLQMNSLRAEDTAVYYCARDQRDFAWGQGTLVTVSS
# VL: DIQMTQSPSSLSASVGDRVTITCQASQDISNYLNWYQQKPGKAPKLLIYDASNLETGVPSRFSGSGSGTDFTFTISGLQPEDIATYYCQQYDNLPPTFGQGTRLEIKR
# B13: mAb10954 (antibody, V domains shown)
# VH: EVQLVESGGGLVQPGGSLRLSCAASGITVSSNYMSWVRQAPGKGLEWVSLIYSGGSTYYADSVKGRFTISRDNSKNTLYLQMNSLRVEDTAVYYCARDHGMAAAGYNYWGQGTLVTVSS
# VL: DIQMTQSPSSLSASVGDRVTITCQASQDINKYLNWYQQKPGKAPKLLIYDASNLETGVPSRFSGSGSGTDFTFTINSLQPEDFATYFCQQYDNLPPAFGQGTKVEIKR
# B14: mAb10935 (antibody, V domains shown)
# VH: EVQLVESGGGLVQPGGSLRLSCAASGFTVSSNYMSWVRQAPGKGLEWVSLIYSGGSTYYADSVKGRFTISRHNSKNTLYLQMNSLRSEDTAVYYCARVPLGDYYYGMDVWGQGTTVTVSS
# VL: DIQMTQSPSSLSASVGDRVTITCQASQDINKYLNWYQQKPGKAPKLLIYDASNLETGVPSRFSGSGSGTDFTFTISSLQPEDIATYYCQQSDNLPLTFGGGTKVEIKR
# B15: mAb11006 (antibody, V domains shown)
# VH: EVQLVESGGGLVQPGGSLRLSCAASGFIVSRNYMSWVRQAPGKGLEWVSVIYSGGSTFYADSVKGRFTISRHNSKNTLYLQMNSLKAEDTAVYYCARELRGYFDYWGQGTLVTVSS
# VL: DIQLTQSPSFLSASVGDRVTITCWASQGISSYLAWYQQKPGKAPKLLIYAASTLQSGVPSRFSGSGSGTEFTLTISSLQPEDFATYYCQLLNSYPYTFGQGTKLEIK
# B16: mAb10915 (antibody, V domains shown)
# VH: EVQLVESGGGLVQPGGSLRLSCAASGFTVSSNYMNWVRQAPGKGLEWVSVIYSGGSTFYADSVKGRFTISRHNSKNTLYLQMNSLRPEDTAVYYCARDLGGYFDYWGQGTLVTVSS
# VL: not shown
# B17: mAb10937 (antibody, V domains shown)
# VH: QITLKESGPTLVKPTQTLTLTCTFSGFSLSTNVVGVGWIRQPPGKALEWLALIYWNDDKRYSPSLKSRLTITKDTSKNQVVLTMTNMDPVDTATYYCAHGPTGDYFDYWGQGTLVTVSS
# VL: not shown
# B18: mAb11004 (antibody, V domains shown)
# VH: QVQLVESGGGVVQPGRSLRLSCVASGFTFSIYGMDWVRQAPGKGLEWVAVISYDGSNKYYADSVKGRFTISRDNSKNTLYLQMNSLRPEDTAVYYCAKDREAAADAFDIWGQGTMVTVSS
# VL: DIQMTQSPSSVSASVGDRVTITCRASQGISSWLAWYQQKPGKAPKLLIYAASSLHSGVPSRFSGSGSGTDFTLTISSLQPEDFATYYCQQANSFRLTFGGGTKVEIK
# B19: mAb10966 (antibody, V domains shown)
# VH: EVQLVESGGGLVQPGGSLRLSCAASGLTVSSNYMSWVRQAPGKGLEWVSVIYSGGSTFYADSVKGRFTISRDNSKNTLYLQMNSLRPEDTAVYYCAREGRIAATGYGMDVWGQGTTVTVSS
# VL: not shown
# B20: mAb10932 (antibody, V domains shown)
# VH: EVQLVESGGGLVQSGGSLRLSCAASGLTVSSNYMSWVRQAPGKGLEWVSVIYSGGSTFYSDSVKGRFTISRHNSKNTLYLQMNSLRAEDTAVYYCARARGDAFDIWGQGTMVTVSS
# VL: not shown
# B21: mAb10939 (antibody, V domains shown)
# VH: EVQLVESGGGLVQPGGSLRLSCAASGLTVSSNYMNWVRQVPGKGLEWVSVIYSGGSKFYVDSVKGRFTISRHNSKNTLYLQMNSLRPEDTAVYYCTRDAQYYGMDVWGQGTTVTVSS
# VL: DIQMTQSPSSLSASVGDRVTITCRASQSISTYLHWYQQKPGEAPKLLIYAASSLQSGVPSRFSGSGSGTDFTLTISSLQPEDFATYYCQQSYSTPPEIFGQGTKLEIKR
# B22: mAb10956 (antibody, V domains shown)
# VH: EVQLVESGGGLVQPGGSLRLSCAASGLTVSSNYMSWVRQAPGKGLEWVSVIYSGGSTFYADSVKGRFTISRDNSKNTLYLQMNSLRAEDTAVYYCARDLIKYGMDVWGQGTTVTVSS
# VL: not shown
# Key:
# [1] = molecular target: SARS-CoV-2 Spike Protein (S1 Subunit, Fc Tag) (Sino 40591-V02H) (SARS-CoV-2, UniProt P0DTC2 16-685); assay: Luminex, supernatant
# [2] = molecular target: SARS-CoV-2 Spike Protein (S1 Subunit, His Tag) (Sino 40591-V08H) (SARS-CoV-2, UniProt P0DTC2 16-685); assay: Luminex, supernatant
# [3] = molecular target: SARS-CoV-2 (2019-nCoV) Spike Protein (S1 Subunit, Fc Tag) (Sino 40591-V02H) (SARS-CoV-2, UniProt P0DTC2 16-685); assay: Luminex bead binding, supernatant
# SARS-COV-2 RBD-mFc = SARS-COV-2 RBD-mFc (SARS-CoV-2); assay: Luminex beads
# [4] = molecular target: SARS-CoV-2 (2019-nCoV) Spike Protein (S1 Subunit, His Tag) (Sino 40591-V08H) (SARS-CoV-2, UniProt P0DTC2 16-685); assay: Luminex bead binding, supernatant
Binder,MFI [1] [MFI],MFI [2] [MFI],Binding signal (MFI) [3] [MFI],binding result (SARS-COV-2 RBD-mFc),Binding signal (MFI) [4] [MFI]
B1,17000,21600,–,–,–
B2,16500,21200,–,–,–
B3,8960,12200,–,–,–
B4,8450,12000,–,–,–
B5,12300,14200,–,–,–
B6,18900,24900,–,–,–
B7,18600,24200,–,–,–
B8,10800,14000,–,–,–
B9,16200,–,–,–,–
B10,16000,19100,–,–,–
B11,20600,27500,–,–,–
B12,15800,21900,–,–,–
B13,16600,21300,–,–,–
B14,20000,25600,–,–,–
B15,–,–,2050,–,–
B16,–,–,–,binds,–
B17,19600,26400,–,–,–
B18,–,–,4480,–,9530
B19,16400,23300,–,–,–
B20,17600,22100,–,–,–
B21,18200,23900,–,–,–
B22,15000,20000,–,–,–
